Columns and labels:
[1] = target: 6His-PopZ P146A (Caulobacter crescentus); assay: SEC-MALLS
[2] = target: 6His-PopZΔ172–177 (Caulobacter crescentus); assay: SEC-MALLS

| stoichiometry N [1] | stoichiometry N [2] | Substance |
| --- | --- | --- |
| 3 |  | 6His-PopZ P146A (natural protein) |
|  | 6 | 6His-PopZΔ172–177 (domain or fragment) |
